Laboratory results published in patent publication US20220144921A1 (US Dept. of Health and Human Services, published 2022).

Assays:
[1] = target: T1, recombinant SUMO protein (small-ubiquitin-like modifier); assay: iELISA, FIG. 4 legend
T1 construct: also called SUMO* tag

[2] = target: T2, recombinant non-structural protein 1 of Yellow Fever Virus (Yellow Fever Virus, UniProt P03314 779-1130); assay: iELISA, FIG. 4 legend
T2 construct: domain: NS1; also called rNS1 YFV

[3] = target: T3, recombinant non-structural protein 1 of West Nile Virus (West Nile Virus, UniProt P06935 788-1139); assay: iELISA, FIG. 4 legend
T3 construct: domain: NS1; also called rNS1 WNV
T3 sequence: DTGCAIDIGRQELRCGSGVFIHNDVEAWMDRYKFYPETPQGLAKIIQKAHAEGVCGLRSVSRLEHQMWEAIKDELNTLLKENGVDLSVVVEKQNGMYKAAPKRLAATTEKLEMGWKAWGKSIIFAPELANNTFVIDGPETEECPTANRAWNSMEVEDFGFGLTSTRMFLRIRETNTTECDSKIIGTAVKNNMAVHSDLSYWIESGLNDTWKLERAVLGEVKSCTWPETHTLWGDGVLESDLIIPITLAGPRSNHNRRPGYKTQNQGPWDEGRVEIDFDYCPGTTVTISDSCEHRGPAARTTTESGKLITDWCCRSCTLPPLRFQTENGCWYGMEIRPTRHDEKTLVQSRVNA

[4] = target: T4, recombinant non-structural protein 1 of DENV2 (Dengue virus serotype 2, UniProt P29990 776-1127); assay: iELISA, FIG. 4 legend
T4 construct: domain: NS1; also called rNS1 DENV2
T4 sequence: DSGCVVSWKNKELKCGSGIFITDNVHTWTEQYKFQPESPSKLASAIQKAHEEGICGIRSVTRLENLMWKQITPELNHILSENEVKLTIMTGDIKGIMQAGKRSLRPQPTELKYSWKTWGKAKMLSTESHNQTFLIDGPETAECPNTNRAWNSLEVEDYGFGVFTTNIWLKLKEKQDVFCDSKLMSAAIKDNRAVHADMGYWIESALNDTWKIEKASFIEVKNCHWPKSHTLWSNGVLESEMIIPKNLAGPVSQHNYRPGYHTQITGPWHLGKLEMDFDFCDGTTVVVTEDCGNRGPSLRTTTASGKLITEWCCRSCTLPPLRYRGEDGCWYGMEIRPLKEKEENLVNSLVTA

[5] = target: T5, recombinant non-structural protein 1 of DENV3 (Dengue virus serotype 3, UniProt Q6YMS4 774-1125); assay: iELISA, FIG. 4 legend
T5 construct: domain: NS1; also called rNS1 DENV3
T5 sequence: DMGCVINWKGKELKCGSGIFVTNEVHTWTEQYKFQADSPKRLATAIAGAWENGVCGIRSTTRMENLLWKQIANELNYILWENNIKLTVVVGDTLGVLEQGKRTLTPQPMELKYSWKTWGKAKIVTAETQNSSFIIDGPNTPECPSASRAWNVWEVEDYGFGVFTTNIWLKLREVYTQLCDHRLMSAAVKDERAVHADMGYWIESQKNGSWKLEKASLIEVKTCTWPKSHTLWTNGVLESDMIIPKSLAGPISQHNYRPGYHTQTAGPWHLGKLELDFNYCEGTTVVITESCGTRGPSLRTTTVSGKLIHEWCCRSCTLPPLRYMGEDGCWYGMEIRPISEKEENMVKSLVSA

[6] = target: T6, recombinant non-structural protein 1 of DENV1 (Dengue virus serotype 1, UniProt P17763 776-1127); assay: iELISA, FIG. 4 legend
T6 construct: domain: NS1; also called rNS DENV1; rNS1 DENV1
T6 sequence: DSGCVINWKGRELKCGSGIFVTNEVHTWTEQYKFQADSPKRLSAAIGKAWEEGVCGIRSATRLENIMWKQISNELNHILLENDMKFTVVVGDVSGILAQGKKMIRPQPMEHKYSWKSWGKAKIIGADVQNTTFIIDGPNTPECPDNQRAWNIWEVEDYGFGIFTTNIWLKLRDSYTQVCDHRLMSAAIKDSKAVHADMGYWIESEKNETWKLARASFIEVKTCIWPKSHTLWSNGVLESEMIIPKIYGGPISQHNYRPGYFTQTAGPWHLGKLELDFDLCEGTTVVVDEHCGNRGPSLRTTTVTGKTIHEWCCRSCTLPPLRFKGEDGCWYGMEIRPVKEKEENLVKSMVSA

[7] = target: T7, native NS1 on the surface of DENV2-infected Vero cells (Dengue virus serotype 2, UniProt P29990 776-1127); assay: cell-based ELISA on infected Vero cells
T7 construct: domain: NS1; also called DENV2 (Cell-Based ELISA)
T7 sequence: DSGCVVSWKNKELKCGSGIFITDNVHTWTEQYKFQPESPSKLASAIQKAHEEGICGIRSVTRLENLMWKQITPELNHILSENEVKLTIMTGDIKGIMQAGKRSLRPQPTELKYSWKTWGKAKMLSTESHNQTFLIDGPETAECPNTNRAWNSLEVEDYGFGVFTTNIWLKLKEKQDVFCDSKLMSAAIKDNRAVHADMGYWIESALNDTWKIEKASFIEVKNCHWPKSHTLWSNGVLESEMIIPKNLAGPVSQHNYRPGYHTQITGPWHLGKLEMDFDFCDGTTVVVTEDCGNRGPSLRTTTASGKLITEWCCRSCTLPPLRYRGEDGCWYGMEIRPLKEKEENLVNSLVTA

[8] = target: T8, native NS1 on the surface of DENV1-infected Vero cells (Dengue virus serotype 1, UniProt P17763 776-1127); assay: cell-based ELISA on infected Vero cells
T8 construct: domain: NS1; also called DENV1 (Cell-Based ELISA)
T8 sequence: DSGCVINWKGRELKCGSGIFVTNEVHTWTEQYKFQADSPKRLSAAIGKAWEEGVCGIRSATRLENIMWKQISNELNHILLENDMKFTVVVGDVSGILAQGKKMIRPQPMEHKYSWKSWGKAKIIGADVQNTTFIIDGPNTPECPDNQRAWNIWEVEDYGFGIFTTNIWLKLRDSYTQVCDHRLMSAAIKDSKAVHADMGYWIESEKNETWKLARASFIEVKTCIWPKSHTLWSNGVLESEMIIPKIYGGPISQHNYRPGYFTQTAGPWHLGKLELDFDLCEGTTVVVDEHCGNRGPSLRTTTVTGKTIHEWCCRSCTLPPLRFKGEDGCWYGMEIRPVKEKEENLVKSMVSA

[9] = target: T9, native NS1 on the surface of DENV3-infected Vero cells (Dengue virus serotype 3, UniProt Q6YMS4 774-1125); assay: cell-based ELISA on infected Vero cells
T9 construct: domain: NS1; also called DENV3 (Cell-Based ELISA)
T9 sequence: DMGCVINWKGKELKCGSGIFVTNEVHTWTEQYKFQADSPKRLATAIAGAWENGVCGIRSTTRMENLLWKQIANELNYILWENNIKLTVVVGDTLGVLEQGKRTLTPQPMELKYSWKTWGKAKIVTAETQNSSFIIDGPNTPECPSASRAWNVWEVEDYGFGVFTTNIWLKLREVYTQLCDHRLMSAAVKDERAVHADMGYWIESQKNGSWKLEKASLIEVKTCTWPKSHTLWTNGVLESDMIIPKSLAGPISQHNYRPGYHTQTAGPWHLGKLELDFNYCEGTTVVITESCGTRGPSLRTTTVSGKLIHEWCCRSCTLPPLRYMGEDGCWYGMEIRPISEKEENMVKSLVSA

[10] = target: T10, native NS1 in culture supernatant of DENV1-infected Vero cells (Dengue virus serotype 1, UniProt P17763 776-1127); assay: iELISA on Vero cell culture supernatant
T10 construct: domain: NS1
T10 sequence: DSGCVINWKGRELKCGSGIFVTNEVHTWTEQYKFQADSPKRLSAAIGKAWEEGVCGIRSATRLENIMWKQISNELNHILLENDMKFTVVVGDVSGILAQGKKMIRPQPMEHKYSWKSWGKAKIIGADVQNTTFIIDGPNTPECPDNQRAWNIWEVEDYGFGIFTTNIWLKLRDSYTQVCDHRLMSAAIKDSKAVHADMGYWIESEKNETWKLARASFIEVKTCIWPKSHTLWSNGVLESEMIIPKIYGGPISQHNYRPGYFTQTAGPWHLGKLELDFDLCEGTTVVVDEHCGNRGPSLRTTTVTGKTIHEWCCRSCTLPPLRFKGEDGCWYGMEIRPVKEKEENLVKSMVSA

[11] = target: T11, native NS1 in culture supernatant of DENV3-infected Vero cells (Dengue virus serotype 3, UniProt Q6YMS4 774-1125); assay: iELISA on Vero cell culture supernatant
T11 construct: domain: NS1
T11 sequence: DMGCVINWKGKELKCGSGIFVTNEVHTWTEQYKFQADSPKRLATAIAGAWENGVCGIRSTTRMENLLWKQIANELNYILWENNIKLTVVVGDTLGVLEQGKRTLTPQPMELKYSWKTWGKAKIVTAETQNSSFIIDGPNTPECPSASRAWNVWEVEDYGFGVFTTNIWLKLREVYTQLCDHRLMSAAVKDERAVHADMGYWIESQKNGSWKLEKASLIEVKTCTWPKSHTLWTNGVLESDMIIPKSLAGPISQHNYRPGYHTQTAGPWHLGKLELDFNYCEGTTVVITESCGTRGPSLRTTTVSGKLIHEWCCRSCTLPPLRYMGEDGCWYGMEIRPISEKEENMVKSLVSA

[12] = target: T12, native NS1 in culture supernatant of DENV2-infected Vero cells (Dengue virus serotype 2, UniProt P29990 776-1127); assay: iELISA on Vero cell culture supernatant
T12 construct: domain: NS1
T12 sequence: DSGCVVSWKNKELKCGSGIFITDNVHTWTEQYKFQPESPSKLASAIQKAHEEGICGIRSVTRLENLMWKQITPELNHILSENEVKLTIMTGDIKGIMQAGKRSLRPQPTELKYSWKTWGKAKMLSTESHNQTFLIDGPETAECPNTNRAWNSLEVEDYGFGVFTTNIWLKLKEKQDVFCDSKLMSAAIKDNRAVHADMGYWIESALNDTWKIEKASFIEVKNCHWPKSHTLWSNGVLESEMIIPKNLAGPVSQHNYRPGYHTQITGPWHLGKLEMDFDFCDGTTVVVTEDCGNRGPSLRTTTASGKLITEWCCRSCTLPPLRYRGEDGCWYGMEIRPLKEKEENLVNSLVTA

[13] = target: T2, recombinant non-structural protein 1 of …; assay: iELISA on recombinant protein
[14] = target: T3, recombinant non-structural protein 1 of …; assay: iELISA on recombinant protein
[15] = target: T4, recombinant non-structural protein 1 of …; assay: iELISA on recombinant protein
[16] = target: T5, recombinant non-structural protein 1 of …; assay: iELISA on recombinant protein
[17] = target: T6, recombinant non-structural protein 1 of …; assay: iELISA on recombinant protein

B1: MAb 3H7A9 (antibody, V domains shown)
VH: EVQLQQSGAELVKPGASVKLSCTASGFNIKDTYMHWVKQRPEQGLEWIGRIDPANGNTQYGPKFQGKATITADTSSNTAYLQLSSLTSEDTAVYYCARGGIFYYYGSSYSYAMDYWGQGTSVTVSS
VL: DIQMTQTTSSLSASLGDRVTISCRASQDISNYLNWYQQKPDGTVTLLIYYTSRLHSGVPSRFSGSGSGTDYSLTISNLEQEDIATYFCQQGNTLPRTFGGGTKLEIK
- OD value (450 nm) [1]: < 0 OD
- OD value (450 nm) [2]: < 0 OD
- OD value (450 nm) [3]: < 0 OD
- OD value (450 nm) [4]: < 0 OD
- OD value (450 nm) [5]: < 0 OD
- OD value (450 nm) [6]: < 0 OD
- binding result [7]: no binding
- binding result [8]: no binding
- binding result [9]: no binding
- binding result [10]: no binding
- binding result [11]: no binding
- binding result [12]: no binding
- binding result [13]: no binding
- binding result [14]: no binding
- binding result [15]: no binding
- binding result [16]: no binding
- binding result [17]: no binding

B2: MAb 6D4B10 (antibody, V domains shown)
VH: EVQLQQSGPELVKPGASVKMSCKASGYTFTSYVMHWVKQKPGQGLEWIGYLNPYNDDTKYNEKFKGKATLTSDKSSSTAYMELSSLTSEDSAVYYCAYGPPYALDYWGQGTSVTVSS
VL: QIVLTQSPAIMTASLGERVTMTCTASSSVSSSYLHWYQQKPGSSPKLWIYSTSNLASGVPARFSGSGSGTSYSLTISSMEAEDAATYYCHQYHRSPYTFGGGTKLEIK
- OD value (450 nm) [1]: < 0 OD
- OD value (450 nm) [2]: < 0 OD
- OD value (450 nm) [3]: < 0 OD
- OD value (450 nm) [4]: < 0 OD
- OD value (450 nm) [5]: < 0 OD
- OD value (450 nm) [6]: < 0 OD
- binding result [7]: no binding
- binding result [8]: no binding
- binding result [9]: no binding
- binding result [10]: no binding
- binding result [11]: no binding
- binding result [12]: no binding
- binding result [13]: no binding
- binding result [14]: no binding
- binding result [15]: no binding
- binding result [16]: no binding
- binding result [17]: no binding

B3: MAb 8A6F2 (antibody, V domains shown)
VH: DVQLQESGPDLVKPSQSLSLTCTVTGYSITSGYNWHWIRQFPGNKLEWMGYIHYSGGTNYNPSLKSRISITRDTSKNQFFLQLNSVTTEDTATYYCARRTGTVPFAYWGQGTLVTVSA
VL: EIVLTQSPALMAASPGEKVTITCSVSSSISSSNLHWYQQKSETSPKPWIYGTSNLASGVPVRFSGSGSGTSYSLTISSMEAEDAATYYCQQWSSYPLTFGGGTKLEIK
- OD value (450 nm) [1]: < 0 OD
- OD value (450 nm) [2]: < 0 OD
- OD value (450 nm) [3]: < 0 OD
- OD value (450 nm) [4]: < 0 OD
- OD value (450 nm) [5]: < 0 OD
- OD value (450 nm) [6]: < 0 OD
- binding result [7]: no binding
- binding result [8]: no binding
- binding result [9]: no binding
- binding result [10]: no binding
- binding result [11]: no binding
- binding result [12]: no binding
- binding result [13]: no binding
- binding result [14]: no binding
- binding result [15]: no binding
- binding result [16]: no binding
- binding result [17]: no binding
